US20260242478A1 (published 2026)
Where no end group is shown, it is not given here.

How the values were obtained:
PSMA Fab [1] = molecular target: T1, PSMA Fab; assay: phage binding ELISA; biotinylated PSMA Fab on neutravidin plate, wells pre-incubated with PSMA antigen as competitor, clonal phage supernatant, anti-M13 HRP detection
T1 construct: also called Anti-PSMA Fab; 006 PSMA Fab
Protocol: (§1) Clonal phage were harvested as crude supernatants and screened via standard ELISAs. […] Prior to the addition of clonal phage. wells were incubated with blocking buffer and PSMA antigen or blocking buffer alone. Without washing or aspirating, clonal phage supernatants were then added to the wells and incubated for a short time. Wells were then washed followed by detection of bound phage using a horse radish conjugated anti-M13 antibody.

PSMA Fab [2] = molecular target: T1, PSMA Fab; assay: phage binding ELISA; biotinylated PSMA Fab on neutravidin plate, clonal phage supernatant, anti-M13 HRP detection; blocking buffer alone;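 note: before phage were added, wells were preincubated with blocking buffer either containing PSMA antigen or without it, and phage were then added with no wash in between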
Protocol: as §1

PSMA Fab (006 PSMA Fab) [3] = molecular target: T2, PSMA Fab (006 PSMA Fab); assay: clonal phage ELISA on biotinylated PSMA Fab captured on neutravidin, anti-M13-HRP detection;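 note: crude clonal phage supernatants added to wells preincubated with PSMA antigen in blocking buffer or with blocking buffer alone, brief binding period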
T2 construct: also called Anti-PSMA Fab; anti-PSMA Fab
Protocol: as §1

PSMA Fab (006 PSMA Fab) [4] = molecular target: T2, PSMA Fab (006 PSMA Fab); assay: clonal phage ELISA on captured PSMA Fab, wells pre-incubated with PSMA antigen as competitor
Protocol: as §1

Binder | Phage binding ELISA signal, Anti-PSMA Fab in presence of PSMA (PSMA Fab [1]) | Phage binding ELISA signal, Anti-PSMA Fab (PSMA Fab [2]) | Phage binding ELISA signal, Anti-PSMA Fab (PSMA Fab (006 PSMA Fab) [3]) | Phage binding ELISA signal, Anti-PSMA Fab in presence of PSMA antigen (PSMA Fab (006 PSMA Fab) [4])
VTPLCVPKWMCELF (cysteine pairing not given here; also: fused to phage pIII, linker and order not given here, Peptide-180 library clone, tested as clonal phage supernatant; not shown: pIII filament protein of the bacteriophage, to which the peptide is fused) [Phage-3200] | 0.0878 | 1.98 | – | –
VTVRCEPAWMCMGF (cysteine pairing not given here; also: fused to phage pIII, linker and order not given here, Peptide-180 library clone, tested as clonal phage supernatant; not shown: pIII filament protein of the bacteriophage, to which the peptide is fused) [Phage-3199] | 0.0999 | 1.98 | – | –
HEHFCRPLWMCTGL (peptide, not shown: large carriers, Clonal phage of the Peptide-180 library, tested as crude supernatant) [Phage-3195] | – | – | 1.99 | 0.0753
VVVSCIPTWMCVGF (cysteine pairing not given here; also: fused to phage pIII, linker and order not given here, Peptide-180 library clone, tested as clonal phage supernatant; not shown: pIII filament protein of the bacteriophage, to which the peptide is fused) [Phage-3202] | 0.103 | 1.98 | – | –
PFAYCVPQWMCEAF (cysteine pairing not given here; also: fused to phage pIII, linker and order not given here, Peptide-180 library clone, tested as clonal phage supernatant; not shown: pIII filament protein of the bacteriophage, to which the peptide is fused) [Phage-3208] | 0.0639 | 1.98 | – | –
DHHICRPAWMCMGL (cysteine pairing not given here; also: fused to phage pIII, linker and order not given here, Peptide-180 library clone, tested as clonal phage supernatant; not shown: pIII filament protein of the bacteriophage, to which the peptide is fused) [Phage-3209] | 0.0876 | 1.97 | – | –
GEAVCIPRWMCDGF (peptide, not shown: large carriers, Clonal phage of the Peptide-180 library, tested as crude supernatant) [Phage-3193] | – | – | 1.99 | 0.0937
LSPMCVPQWMCSGF (peptide, not shown: large carriers, Clonal phage of the Peptide-180 library, tested as crude supernatant) [Phage-3197] | – | – | 1.99 | 0.119
EVVMCRPLWMCSGF (peptide, not shown: large carriers, Clonal phage of the Peptide-180 library, tested as crude supernatant) [Phage-3192] | – | – | 2 | 0.0925
LERLCQPSWMCTGF (cysteine pairing not given here; also: fused to phage pIII, linker and order not given here, Peptide-180 library clone, tested as clonal phage supernatant; not shown: pIII filament protein of the bacteriophage, to which the peptide is fused) [Phage-3204] | 0.0739 | 1.98 | – | –
DTPKCIPQWMCVGF (cysteine pairing not given here; also: fused to phage pIII, linker and order not given here, Peptide-180 library clone, tested as clonal phage supernatant; not shown: pIII filament protein of the bacteriophage, to which the peptide is fused) [Phage-3210] | 0.0677 | 1.97 | – | –
LEALCVPRWMCEGF (peptide, not shown: large carriers, Clonal phage of the Peptide-180 library, tested as crude supernatant) [Phage-3189] | – | – | 2 | 0.096
VEVRCVPAWMCTGF (peptide, not shown: large carriers, Clonal phage of the Peptide-180 library, tested as crude supernatant) [Phage-3196] | – | – | 1.99 | 0.0941
DMRVCKPEWMCTGL (peptide, not shown: large carriers, Clonal phage of the Peptide-180 library, tested as crude supernatant) [Phage-3188] | – | – | 2 | 0.109
PEAMCRPTWMCAGF (cysteine pairing not given here; also: fused to phage pIII, linker and order not given here, Peptide-180 library clone, tested as clonal phage supernatant; not shown: pIII filament protein of the bacteriophage, to which the peptide is fused) [Phage-3211] | 0.0674 | 1.97 | – | –
VVKICQPDWMCWGF (cysteine pairing not given here; also: fused to phage pIII, linker and order not given here, Peptide-180 library clone, tested as clonal phage supernatant; not shown: pIII filament protein of the bacteriophage, to which the peptide is fused) [Phage-3205] | 0.0655 | 1.98 | – | –
DMPLCIPAWMCAGF (peptide, not shown: large carriers, cysteine pairing not given here; also: fused to phage pIII, junction sequence not given here, Clonal phage of the Peptide-180 library, tested as crude supernatant) [Phage-3194] | – | – | 1.99 | 0.0615
QHWQCVPRWMCDGF (peptide, not shown: large carriers, Clonal phage of the Peptide-180 library, tested as crude supernatant) [Phage-3191] | – | – | 2 | 0.103
VSVRCEPEWMCMGF (cysteine pairing not given here; also: fused to phage pIII, linker and order not given here, Peptide-180 library clone, tested as clonal phage supernatant; not shown: pIII filament protein of the bacteriophage, to which the peptide is fused) [Phage-3203] | 0.0741 | 1.98 | – | –
VVPLCIPQWMCAVF (cysteine pairing not given here; also: fused to phage pIII, linker and order not given here, Peptide-180 library clone, tested as clonal phage supernatant; not shown: pIII filament protein of the bacteriophage, to which the peptide is fused) [Phage-3201] | 0.0757 | 1.98 | – | –
FDRVCKPEWMCNGL (peptide, not shown: large carriers, Clonal phage of the Peptide-180 library, tested as crude supernatant) [Phage-3198] | – | – | 1.99 | 0.0655
HDPACVPSWMCFGF (cysteine pairing not given here; also: fused to phage pIII, linker and order not given here, Peptide-180 library clone, tested as clonal phage supernatant; not shown: pIII filament protein of the bacteriophage, to which the peptide is fused) [Phage-3207] | 0.0668 | 1.98 | – | –
ADLRCVPEWMCMGI (peptide, not shown: large carriers, Clonal phage of the Peptide-180 library, tested as crude supernatant) [Phage-3190] | – | – | 2 | 0.0654
TVVKCVPEWMCEWL (cysteine pairing not given here; also: fused to phage pIII, linker and order not given here, Peptide-180 library clone, tested as clonal phage supernatant; not shown: pIII filament protein of the bacteriophage, to which the peptide is fused) [Phage-3206] | 0.0606 | 1.98 | – | –
